Source: patent publication EP1591450A1, “CONJUGATE FOR RETENTION IN BLOOD AND CANCER TISSUE-SPECIFIC DRUG DELIVERY” (YAMANOUCHI PHARMACEUTICAL CO. LTD., priority 2003, dated 2004)
Where a SMILES comes first, the peptide text is derived from it. The star is where a group is joined. X1 = O=C(OCC1c2ccccc2-c2ccccc21)N(CC(=O)*)C(=O)OCC1c2ccccc2-c2ccccc21; Fmoc = O=C(OCC1c2ccccc2-c2ccccc21)*

Experiments:
MMP-2 = target: T1, MMP-2 (Homo sapiens, UniProt P08253); assay: Enzymatic degradation of peptide and peptide-PEG by MMP-2; assay type: biochemical; conditions: beginning of reaction (15 minutes), 37°C, Tris buffer pH 7.5; Figure 4
T1 sequence (P08253 110-660): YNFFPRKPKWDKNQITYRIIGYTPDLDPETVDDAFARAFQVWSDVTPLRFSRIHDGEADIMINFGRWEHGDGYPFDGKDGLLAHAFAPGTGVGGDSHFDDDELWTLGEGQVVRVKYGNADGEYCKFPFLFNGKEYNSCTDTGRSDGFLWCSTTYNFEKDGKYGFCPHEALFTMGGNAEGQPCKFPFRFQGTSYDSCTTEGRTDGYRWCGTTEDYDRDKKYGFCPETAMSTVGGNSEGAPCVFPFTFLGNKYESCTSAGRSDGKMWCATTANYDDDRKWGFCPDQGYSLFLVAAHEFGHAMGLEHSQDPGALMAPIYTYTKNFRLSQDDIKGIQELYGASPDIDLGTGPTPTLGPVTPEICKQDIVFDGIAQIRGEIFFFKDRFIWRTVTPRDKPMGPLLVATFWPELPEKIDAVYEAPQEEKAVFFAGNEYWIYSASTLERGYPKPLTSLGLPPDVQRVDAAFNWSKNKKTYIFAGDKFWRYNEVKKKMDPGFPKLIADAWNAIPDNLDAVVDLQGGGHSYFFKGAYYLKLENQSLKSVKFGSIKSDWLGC
Protocol: After mixing in 0.5 ml of sample in 0.5 ml of acetonitrile, the mixture was filtered and gel filtration was performed.
MMP-2 solution was diluted with Tris buffer. […] The final concentration of MMP-2 was 0.34 µg/ml. […] The Fmoc-GPQGIAGWG-PEG in the filtrate was separated and quantitatively determined by gel filtration.

[1] = Particle diameter determination of peptide-PEG micelles (NICOMP Model 370); assay type: physicochemical
Protocol: The particle diameter of the micelles and the liposomes was determined with the NICOMP Model 370 (Particle Sizing Systems, Inc.).
Then particle diameter was determined by a laser diffraction particle diameter distribution determination device (NICOMP Model 370)(Table1).

trypsin = target: T2, trypsin (Bos taurus, UniProt P00760); assay: Enzymatic degradation of peptide by trypsin; assay type: biochemical; conditions: trypsin 10 µg/ml, 37°C, Tris buffer pH 7.5
T2 construct: gene PRSS1
T2 sequence (P00760 24-246): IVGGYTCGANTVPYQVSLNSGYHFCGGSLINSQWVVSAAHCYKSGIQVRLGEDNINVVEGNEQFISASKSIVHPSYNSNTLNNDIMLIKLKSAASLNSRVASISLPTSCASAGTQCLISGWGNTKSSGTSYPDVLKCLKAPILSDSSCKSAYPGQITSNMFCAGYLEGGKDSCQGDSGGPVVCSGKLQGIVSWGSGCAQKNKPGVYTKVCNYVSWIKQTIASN
Protocol: (§1) Fmoc-[…] was dissolved in Tris buffer (100 mM Tris/100 mM NaCl/10 mM CaCl2/0.05% BRIJ35, pH 7.5) and adjusted to a pre-determined concentration. MMP-2, collagenase, carboxypeptidase A, aminopeptidase-1, and trypsin were each diluted or dissolved in Tris buffer. Each enzyme solution was added to Fmoc-[…] solution that had been heated to 37°C and incubated for a pre-determined time at 37°C. The final concentration of the enzymes was as shown below: MMP-2: 0.17 µg/ml, collagenase: 7 µg/ml, carboxypeptidase A: 10 µg/ml, aminopeptidase-1: 10 µg/ml, trypsin: 10 µg/ml. After a pre-determined time, the same amount of acetonitrile was added to the sample solutions and they were filtered with a 0.5 µm filter (Millex-LH MILIPORE).

aminopeptidase-1 = conditions: per unit weight of enzyme and unit time, beginning (15 minutes) of reaction, 37°C, Tris buffer pH 7.5; MMP-2 0.17 µg/ml, aminopeptidase-1 10 µg/ml
Protocol: as §1

carboxypeptidase A = carboxypeptidase A (Homo sapiens, UniProt P15085); conditions: per unit weight of enzyme and unit time, beginning (15 minutes) of reaction, 37°C, Tris buffer pH 7.5; MMP-2 0.17 µg/ml, carboxypeptidase A 10 µg/ml
Protocol: as §1

collagenase = conditions: per unit weight of enzyme and unit time, beginning (15 minutes) of reaction, 37°C, Tris buffer pH 7.5; MMP-2 0.17 µg/ml, collagenase 7 µg/ml
Protocol: as §1

carboxypeptidase A, sequence (P15085 111-419): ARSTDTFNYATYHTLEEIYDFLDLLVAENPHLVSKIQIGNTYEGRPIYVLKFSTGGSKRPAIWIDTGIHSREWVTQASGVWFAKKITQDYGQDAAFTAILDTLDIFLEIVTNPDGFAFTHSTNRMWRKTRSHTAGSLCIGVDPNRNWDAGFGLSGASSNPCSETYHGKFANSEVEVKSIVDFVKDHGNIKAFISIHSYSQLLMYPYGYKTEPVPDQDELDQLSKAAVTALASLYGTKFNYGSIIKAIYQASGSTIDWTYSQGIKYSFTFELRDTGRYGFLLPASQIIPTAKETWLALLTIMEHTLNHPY

For “9-fluorenylmethyloxycarbonyl (Fmoc)-glycyl-prolyl-glutamyl-glycyl-isoleucyl-alanyl-glycyl-tryptophanyl-glycyl (Gly-Pro-Gln-Gly-Ile-Ala-Gly-Trp-Gly)-amide propyl polyoxyethylene methyl ether (Fmoc-GPQGIAGWG-{amide propyl polyoxyethylene methyl ether}; not fully specified) [Fmoc-GPQGIAGWG-PEG]”, the “degradation rate by MMP-2 per unit weight of MMP-2 and unit time, peptide compared with peptide-PEG” value (MMP-2) was “virtually the same”, the Particle diameter ([1]; Concentration 5 µM in Tris buffer pH 7.5) was 232 nm and the Particle diameter ([1]; Concentration 10 µM in Tris buffer pH 7.5) was 200 nm. The Particle diameter ([1]; Concentration 20 µM in Tris buffer pH 7.5) was 205 nm, the Particle diameter ([1]; Concentration 50 µM in Tris buffer pH 7.5) was 210 nm and the Particle diameter ([1]; Concentration 100 µM in Tris buffer pH 7.5) was 237 nm. The “particle diameter of aggregate” value ([1]; at 5 µm or more) was “approximately 200 nm” and the critical micelle concentration ([1]; concluded from particle diameter and laser scattering intensity, Tris buffer pH 7.5) was roughly 5 µM.
For `CC[C@H](C)[C@H](NC(=O)CNC(=O)[C@H](CCC(=O)O)NC(=O)[C@@H]1CCCN1C(=O)CN(C(=O)OCC1c2ccccc2-c2ccccc21)C(=O)OCC1c2ccccc2-c2ccccc21)C(=O)N[C@@H](C)C(=O)NCC(=O)N[C@@H](Cc1c[nH]c2ccccc12)C(=O)NCC(=O)O` [Fmoc-GPQGIAGWG, 9-fluorenylmethyloxycarbonyl (Fmoc)-glycyl-prolyl-glutamyl-glycyl-isoleucyl-alanyl-glycyl-tryptophanyl-glycine (Gly-Pro-Gln-Gly-Ile-Ma-Gly-Trp-Gly)] (X1-PEGIAGWG-OH), the Degradation by trypsin (trypsin) was “not observed”, the “degradation rate by MMP-2 per unit weight of MMP-2 and unit time, peptide compared with peptide-PEG” value (MMP-2) was “virtually the same” and the “degradation rate by MMP-2 relative to that of aminopeptidase-1” value (aminopeptidase-1) was 14.2 x. The “degradation rate by MMP-2 relative to that of carboxypeptidase A” value (carboxypeptidase A) was 38.8 x and the “degradation rate by MMP-2 relative to that of collagenase” value (collagenase) was 26.9 x.
